Values of other authors in article PMC5982148.

Experiments:
Assay in all cases: SPR
[1] = biological target: cytochrome b5 (Homo sapiens) (UniProt P00167)
[2] = biological target: SMAD4 (Homo sapiens) (UniProt Q13485)
[3] = biological target: NADPH-adrenodoxin reductase (Homo sapiens) (UniProt P22570)
[4] = biological target: CYP2C9 (Homo sapiens) (UniProt P11712)
[5] = biological target: CYP1B1 (Homo sapiens) (UniProt Q16678)
[6] = biological target: glyceraldehyde-3-phosphate dehydrogenase (Homo sapiens) (UniProt P04406)
Chain of UniProt P04406 (P04406 2-335): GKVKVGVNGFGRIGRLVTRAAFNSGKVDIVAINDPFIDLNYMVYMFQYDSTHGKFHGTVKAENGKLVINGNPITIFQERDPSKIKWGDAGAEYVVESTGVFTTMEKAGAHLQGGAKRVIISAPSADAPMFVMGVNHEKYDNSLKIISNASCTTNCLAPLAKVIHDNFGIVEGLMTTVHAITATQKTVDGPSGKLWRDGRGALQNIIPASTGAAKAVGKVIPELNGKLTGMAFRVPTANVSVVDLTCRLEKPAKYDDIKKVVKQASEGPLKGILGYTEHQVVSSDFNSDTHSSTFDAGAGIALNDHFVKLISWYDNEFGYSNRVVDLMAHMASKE

Chain of UniProt P22570 (P22570 33-491): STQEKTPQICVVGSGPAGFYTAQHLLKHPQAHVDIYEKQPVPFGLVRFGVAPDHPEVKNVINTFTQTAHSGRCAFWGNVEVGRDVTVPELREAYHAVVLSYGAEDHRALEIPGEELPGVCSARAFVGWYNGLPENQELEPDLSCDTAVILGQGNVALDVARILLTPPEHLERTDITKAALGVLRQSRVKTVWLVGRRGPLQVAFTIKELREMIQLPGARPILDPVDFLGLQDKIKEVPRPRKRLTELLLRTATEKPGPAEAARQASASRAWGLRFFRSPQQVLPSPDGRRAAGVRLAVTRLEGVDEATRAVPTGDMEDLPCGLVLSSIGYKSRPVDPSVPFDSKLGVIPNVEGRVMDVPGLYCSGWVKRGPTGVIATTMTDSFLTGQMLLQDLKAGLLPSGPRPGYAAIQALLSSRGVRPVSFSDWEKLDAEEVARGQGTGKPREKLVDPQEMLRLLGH
Chain of UniProt Q13485 (Q13485 whole entry): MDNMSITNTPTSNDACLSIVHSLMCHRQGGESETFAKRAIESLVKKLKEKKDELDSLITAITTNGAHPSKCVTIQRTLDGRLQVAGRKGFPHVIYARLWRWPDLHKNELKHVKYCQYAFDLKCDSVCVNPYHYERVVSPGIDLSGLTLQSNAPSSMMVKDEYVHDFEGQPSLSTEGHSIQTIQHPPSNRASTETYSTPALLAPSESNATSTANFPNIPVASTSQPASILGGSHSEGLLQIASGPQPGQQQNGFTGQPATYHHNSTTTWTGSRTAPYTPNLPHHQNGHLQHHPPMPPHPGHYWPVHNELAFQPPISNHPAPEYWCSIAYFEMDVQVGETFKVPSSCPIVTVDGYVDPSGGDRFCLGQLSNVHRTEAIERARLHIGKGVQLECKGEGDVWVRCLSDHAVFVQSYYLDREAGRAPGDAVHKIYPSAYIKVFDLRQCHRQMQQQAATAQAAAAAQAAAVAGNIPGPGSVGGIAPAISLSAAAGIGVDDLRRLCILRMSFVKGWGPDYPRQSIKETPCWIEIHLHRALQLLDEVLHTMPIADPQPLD
Chain of UniProt P11712 (P11712 whole entry): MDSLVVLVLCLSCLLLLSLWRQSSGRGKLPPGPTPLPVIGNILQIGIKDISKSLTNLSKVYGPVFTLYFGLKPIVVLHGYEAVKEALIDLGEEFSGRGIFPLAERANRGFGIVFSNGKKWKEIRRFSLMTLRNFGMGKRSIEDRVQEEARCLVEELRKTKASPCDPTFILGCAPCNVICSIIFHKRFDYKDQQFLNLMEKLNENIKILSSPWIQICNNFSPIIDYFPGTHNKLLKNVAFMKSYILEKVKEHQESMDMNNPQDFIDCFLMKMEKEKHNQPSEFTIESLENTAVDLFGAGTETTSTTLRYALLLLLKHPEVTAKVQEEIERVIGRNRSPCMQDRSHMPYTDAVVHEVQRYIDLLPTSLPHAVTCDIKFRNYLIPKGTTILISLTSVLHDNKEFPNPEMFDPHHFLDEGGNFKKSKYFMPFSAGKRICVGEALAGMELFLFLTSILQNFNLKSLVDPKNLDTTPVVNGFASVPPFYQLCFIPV
Chain of UniProt Q16678 (Q16678 whole entry): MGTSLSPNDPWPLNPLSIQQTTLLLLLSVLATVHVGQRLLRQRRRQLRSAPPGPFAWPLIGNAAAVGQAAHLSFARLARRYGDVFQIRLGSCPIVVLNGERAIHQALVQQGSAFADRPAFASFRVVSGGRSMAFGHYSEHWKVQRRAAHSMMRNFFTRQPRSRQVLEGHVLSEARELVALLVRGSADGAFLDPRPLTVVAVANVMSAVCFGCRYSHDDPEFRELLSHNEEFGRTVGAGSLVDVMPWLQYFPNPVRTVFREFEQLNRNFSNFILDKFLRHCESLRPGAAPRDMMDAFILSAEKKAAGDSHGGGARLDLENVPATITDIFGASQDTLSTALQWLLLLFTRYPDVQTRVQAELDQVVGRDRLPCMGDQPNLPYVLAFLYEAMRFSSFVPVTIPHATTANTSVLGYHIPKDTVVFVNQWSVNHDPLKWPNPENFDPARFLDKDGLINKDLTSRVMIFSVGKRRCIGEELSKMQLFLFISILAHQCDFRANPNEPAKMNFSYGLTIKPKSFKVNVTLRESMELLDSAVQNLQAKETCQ

Kd [1] [nM]	Kd [2] [nM]	Kd [3] [nM]	Kd [4] [nM]	Kd [5] [nM]	Kd [6] [nM]	Substance
1500	1600	13000				ferrochelatase (from UniProt P22830)
			1100	70	100	cytochrome b5 (from UniProt P00167)
